# According to patent publication US20240083971A1, “IMMUNE EFFECTOR CELL COVALENT IMMUNE RECRUITING (CIR) MOLECULES AND METHODS AND USES THEREOF” (McMaster University, priority 2022, published 2024):
# Bridges are numbered along the chain shown (N, C = ends). Primed or numbered codes have the meaning given here. Where no end group is shown, it is not given here. [ ]: non-standard residue; d: D form. The star is where a group is joined. Biotin = O=C1N[C@H]2[C@H](CS[C@H]2CCCCC(=O)*)N1; Benzoyl(3-SO2F) = O=C(c1cccc(S(=O)(=O)F)c1)*; Lys(N3) = [N-]=[N+]=NCCCC[C@H](N)C(=O)O; azido = azide group (monovalent —N3); DBCO′ = not defined here; PEG4′ = not defined here
# T1: human CD64 (recombinant) (human, UniProt P12314 16-288)
# T1 chain: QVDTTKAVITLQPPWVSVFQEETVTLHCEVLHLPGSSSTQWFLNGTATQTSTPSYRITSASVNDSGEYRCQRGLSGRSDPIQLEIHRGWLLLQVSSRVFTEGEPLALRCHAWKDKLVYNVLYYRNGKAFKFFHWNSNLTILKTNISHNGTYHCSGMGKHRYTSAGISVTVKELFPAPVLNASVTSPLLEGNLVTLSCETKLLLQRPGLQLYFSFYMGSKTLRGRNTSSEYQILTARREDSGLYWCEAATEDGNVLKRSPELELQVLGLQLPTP
# Tests used:
# CD64 [1] = target: T2, CD64 (Homo sapiens, UniProt P12314); assay: Kon (M^-1 s^-1)
# Procedure: (§1) Table printed on a drawing sheet, FIG. 8A
# Head of the field: Kon (M^-1 s^-1)
# (§2) The patent's description of the figure: FIG. 8A-8B depicts results for the CP-33(N-term “Y” insertion mutant). […] (Note: the linker-biotin is attached to the azide; DBCO-Biotin not shown).
# (§3) First copying reader's note: The name cp33-nt-tyr is printed with the structure in FIG. 8B on the same sheet; per the description, the BLI kinetics were measured with its linker-biotin conjugate binding to human CD64.
# Target sequence in this assay (P12314 16-374 limits assumed): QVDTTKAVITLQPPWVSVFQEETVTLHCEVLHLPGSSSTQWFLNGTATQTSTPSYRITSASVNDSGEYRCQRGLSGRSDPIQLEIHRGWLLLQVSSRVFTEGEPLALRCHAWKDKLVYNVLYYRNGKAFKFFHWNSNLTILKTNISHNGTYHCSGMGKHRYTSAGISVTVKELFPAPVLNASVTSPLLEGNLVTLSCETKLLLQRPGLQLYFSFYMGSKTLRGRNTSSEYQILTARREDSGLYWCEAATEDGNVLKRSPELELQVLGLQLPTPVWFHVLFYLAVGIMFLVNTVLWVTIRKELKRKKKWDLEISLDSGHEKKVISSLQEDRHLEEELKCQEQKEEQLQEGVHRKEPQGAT
# CD64 [2] = target: T2, CD64; assay: Koff (s^-1)
# Procedure: as §1
# Target sequence in this assay (P12314 16-374 limits assumed): as above
# Head of the field: Koff (s^-1)
# as §2, §3
# CD64 [3] = target: T2, CD64; assay: fluorescent SDS-PAGE covalent labelling kinetics of CD64; type: binding; conditions: 1.6 μM CIR, 800 nM CD64, one-phase association fit
# Procedure: Dark bands show A647 fluorescence as measured using the Cy5 channel and represent covalent CIR binding. 1.6 μM of CIR was incubated with 800 nM CD64 for different amounts of time before being run on a SDS-PAGE gel.
# The fluorescence intensity of each band in FIG. 17A-17C was measured and then compared to the fluorescence intensity of the band at 100% fraction labelled (where the fluorescence intensity reaches a plateau) to make a fraction bound vs time graph. The curve of the graph was fitted to a one-phase association curve in GraphPad Prism 8 to find the Kobs.
# The kinetics of the labelling reaction was also investigated using fluorescent SDS-PAGE gels similar to as described above. 1.6 μM of CIR was incubated with 800 nM CD64 for different amounts of time before being run on a SDS-PAGE gel (FIG. 17). The fluorescence intensity of each band was then measured and then compared to the fluorescence intensity of the band at 100% fraction labelled (where the fluorescence intensity reaches a plateau) to make a fraction bound vs time graph (FIG. 18). The curve of the graph was fitted to a one-phase association curve to find the Kobs.
# Target sequence in this assay (P12314 16-374): as the sequence (P12314 16-374 limits assumed) above
# [4] = LC-MS stability in aqueous conditions at room temperature; conditions: over 27 hours
# Procedure: The stability of the three sulfonyl fluoride variants in aqueous conditions at room temperature were then assessed using LC-MS. LC-MS measurements were taken over 27 hours and peaks on the UV chromatogram were monitored for CIR degradation (FIG. 19-21).
# CD64 on live U937 cells = target: T3, CD64 on live U937 cells (Homo sapiens, UniProt P12314); assay: CIR-biotin labeling of CD64 on live U937 cells detected with streptavidin-PE; type: cell-based; conditions: 24 hours at 37° C. with IFNγ
# T3 construct: endogenous in cells
# T3 sequence (P12314 16-374): as the sequence (P12314 16-374 limits assumed) above
# Procedure: CIR-biotin was incubated with U937 cells for 24 hours at 37° C. along with IFNγ. The cells were then washed and incubated with streptavidin-PE. The streptavidin binds tightly to the biotin on the CIR and the fluorescent PE signal was read. cP33-ct-aryl SuFEx (CT), cP33-int-aryl SuFEx (INT), cP33-nt-aryl SuFEx (NT), and a noncovalent analog were incubated at increasing concentrations.
# The ability of the three sulfonyl fluoride CIR variants to label CD64 on the surface of live cells was assayed using CIRs clicked to a biotin handle. CIR-biotin was incubated with U937 cells for 24 hours at 37° C. along with IFNγ. Post reaction, the cells were washed and incubated with streptavidin-PE. The streptavidin binds tightly to the biotin on the CIR and the fluorescent PE signal was read using a BD LSRII flow cytometer (FIG. 24). 100X CIR not labelled with biotin was used as competitor control to assess specificity and covalency (FIG. 25).
# CD64 [5] = target: T2, CD64; assay: fluorescent SDS-PAGE covalent labelling specificity of sulfonyl fluoride CIRs (CD64, CD16, BSA); type: binding; conditions: 1.6 μM CIR-A647, 800 nM protein, 7 hours, room temperature
# Procedure: Dark bands show A647 fluorescence as measured using the Cy5 channel and represent covalent CIR binding. For each sample, 1.6 μM CIR clicked to A647 fluorescent dye was incubated with 800 nM of protein for 7 hours.
# The specificity of the three sulfonyl fluoride CIR variations for labelling CD64 were investigated using a fluorescent SDS-PAGE assay similar to as described above (FIG. 16). 1.6 μM CIR clicked to A647 fluorescent dye was incubated with 800 nM of protein for 7 hours at room temperature in the dark. Three different proteins were assayed to test specificity: CD64, CD16, and BSA. The samples were then run on a 4-20% gradient acrylamide gel and fluorescence was measured using the Cy5 channel with an Amersham Typhoon biomolecular imager. Only covalently labelled CIR will remain bound to CD64 in SDS-PAGE giving rise to fluorescent bands.
# Target sequence in this assay (P12314 16-374): as the sequence (P12314 16-374 limits assumed) above
# human CD64 (recombinant) [6] = target: T1, human CD64 (recombinant); assay: BLI; 50 nM CD64
# human CD64 (recombinant) [7] = target: T1, human CD64 (recombinant); assay: BLI; 200 nM CD64
# human CD64 (recombinant) [8] = target: T1, human CD64 (recombinant); assay: BLI; 100 nM CD64
# human CD64 (recombinant) [9] = target: T1, human CD64 (recombinant); assay: BLI; 100 nM CD64
# human CD64 (recombinant) [10] = target: T1, human CD64 (recombinant); assay: BLI; 50 nM CD64
# human CD64 (recombinant) [11] = target: T1, human CD64 (recombinant); assay: BLI; 12.5 nM CD64
# human CD64 (recombinant) [12] = target: T1, human CD64 (recombinant); assay: BLI; 25 nM CD64
# human CD64 (recombinant) [13] = target: T4, human CD64 (recombinant) (human, UniProt P12314 16-288, limits assumed); assay: fluorescence SDS-PAGE covalent labelling kinetics, 1.6 µM CIR with 800 nM CD64, one-phase association fit
# T4 construct: Recombinant protein in solution, or biotinylated on streptavidin biosensors; Some passages print only 'CD64'; also called huCD64; biotinylated huCD64
# human CD64 (recombinant) [14] = target: T1, human CD64 (recombinant); assay: BLI
molecule,measurement,setting,value
CC(=O)N[C@@H](CCCCN=[N+]=[N-])C(=O)NCC(=O)N[C@@H](Cc1ccc(O)cc1)C(=O)N[C@H](C(=O)N[C@@H](CC(N)=O)C(=O)N[C@@H](CO)C(=O)N[C@H]1CSSC[C@@H](C(=O)NCC(=O)N[C@@H](CC(=O)O)C(=O)N[C@@H](CC(=O)O)C(N)=O)NC(=O)CNC(=O)[C@H](CC(C)C)NC(=O)[C@H](CC(C)C)NC(=O)[C@H](CC(N)=O)NC(=O)[C@@H]2CCCN2C(=O)[C@H](CC(C)C)NC(=O)[C@H](CC(C)C)NC(=O)[C@H](CC(C)C)NC1=O)C(C)C [cp33-nt-tyr],kon,CD64 [1],332000 M⁻¹ s⁻¹
same,koff,CD64 [2],0.00711 s⁻¹
cP33 int-aryl SuFEx: cP33 peptide with the sulfonyl fluoride at an internal position replacing leucine; SEQ ID NO: 14 ([Lys(N3)]VNSCLLLPNK(Benzoyl(3-SO2F))LGCDGD; disulfide 5-14; not fully specified),Kobs,CD64 [3],9.2e-05 s⁻¹
same,stability in aqueous conditions (degradation peaks in UV trace),[4],noticeable degradation peaks by 27 hours
cP33 ct-aryl SuFEx: cP33 peptide with the sulfonyl fluoride group at the C-terminus; SEQ ID NO: 12 ([Lys(N3)]VNSCLLLPNLLGCDGDK(Benzoyl(3-SO2F)); disulfide 5-14; not fully specified),covalent labelling of CD64 on live cells (streptavidin-PE signal),CD64 on live U937 cells,specific and effective covalent labelling of CD64 on the surface of live cells
same,Kobs,CD64 [3],6.7e-05 s⁻¹
same,covalent labelling preference for CD64 vs CD16 and BSA,CD64 [5],greater binding selectivity compared to the other variants
same,stability in aqueous conditions (degradation peaks in UV trace),[4],some slight degradation peaks by 27 hours
"XGYVNSCLLLPNLLGCGDD (not fully specified; X1 is K, Ac-K(azido), or absent (azide clicked to DBCO-peg4-biotin); disulfide bond between C7 and C16; C-terminal amidation present or absent) [CP-33(N-term ""Y"" insertion mutant)-linker-biotin conjugate]",Kd,human CD64 (recombinant) [6],17.9 nM
same,Kd,human CD64 (recombinant) [7],20.8 nM
same,Kd,human CD64 (recombinant) [8],18.2 nM
"XVNSCLLLPNLLGCGDDY (not fully specified; X1 is K, Ac-K(azido), or absent (azide clicked to DBCO-peg4-biotin); disulfide bond between C5 and C14; C-terminal amidation present or absent) [CP-33(C-term ""Y"" insertion mutant)-linker-biotin conjugate]",Kd,human CD64 (recombinant) [9],4 nM
same,Kd,human CD64 (recombinant) [10],3 nM
same,Kd,human CD64 (recombinant) [11],2 nM
same,Kd,human CD64 (recombinant) [12],2.6 nM
[Lys(N3)]VNSCLLLPNK(Benzoyl(3-SO2F))LGCDGD (disulfide 5-14; also: X1 azide clicked to DBCO-A647 or DBCO-biotin) [cP33-int-aryl SuFEx],Kobs,human CD64 (recombinant) [13],9.2e-05 s⁻¹
{Biotin-PEG4′-DBCO′-azido}-VNSCLLLPNLLGCGDD (disulfide 4-13; not fully specified) [native CP-33-linker-biotin conjugate],Kd,human CD64 (recombinant) [14],56 nM
[Lys(N3)]VNSCLLLPNLLGCDGDK(Benzoyl(3-SO2F)) (disulfide 5-14; also: X1 azide clicked to DBCO-A647 or DBCO-biotin) [cP33-ct-aryl SuFEx],Kobs,human CD64 (recombinant) [13],6.7e-05 s⁻¹
